Test results: article PMC2572860

Biological target: apoMb samples (RNCs bearing apoMb nascent polypeptides of increasing length)
Experiment: co-sedimentation

Sequence of DnaK (P0A6Y8 whole entry): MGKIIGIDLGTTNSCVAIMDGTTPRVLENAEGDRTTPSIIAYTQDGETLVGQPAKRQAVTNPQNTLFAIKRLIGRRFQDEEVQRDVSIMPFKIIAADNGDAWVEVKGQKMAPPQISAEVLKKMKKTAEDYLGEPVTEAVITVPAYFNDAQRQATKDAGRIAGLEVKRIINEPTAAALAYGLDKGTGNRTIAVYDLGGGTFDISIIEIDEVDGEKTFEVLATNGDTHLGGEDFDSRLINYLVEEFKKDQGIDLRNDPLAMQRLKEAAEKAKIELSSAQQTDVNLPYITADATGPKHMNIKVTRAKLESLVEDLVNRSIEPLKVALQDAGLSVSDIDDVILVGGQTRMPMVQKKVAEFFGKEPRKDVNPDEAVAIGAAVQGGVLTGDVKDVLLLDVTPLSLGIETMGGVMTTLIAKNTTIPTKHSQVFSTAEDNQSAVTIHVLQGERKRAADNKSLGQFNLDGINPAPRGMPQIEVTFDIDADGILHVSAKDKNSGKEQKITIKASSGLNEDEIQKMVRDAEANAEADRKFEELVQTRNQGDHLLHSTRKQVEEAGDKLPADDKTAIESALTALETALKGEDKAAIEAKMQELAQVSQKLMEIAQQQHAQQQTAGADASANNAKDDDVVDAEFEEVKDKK

DnaK (from UniProt P0A6Y8 1-638) (natural protein)
DnaK concentration in the resuspended RNC pellet: 20 to 65 nM
